B1: AbS0 antibody (AbS0 Fab converted into human IgG1) (antibody, V domains shown)
VH: EVQLVESGGGLVQPGGSLRLSCAASGFTFSTYAMSWVRQAPGKGLEWVSSISQSGGYTNYADSVKGRFTISRDNSKNTLYLQMNSLRAEDTAVYYCAKVIYASLDYWGQGTLVTVSS
VL: DIQMTQSPSSLSASVGDRVTITCRASQSIASYLNWYQQKPGKAPKLLIYATSRLQSGVPSRFSGSGSGTDFTLTISSLQPEDFATYYCQQSYSSPYTFGQGTKVEIK
notes: also called AbS0 mAb; wild type AbS0
B2: AbS0 Fab phage (Fab, V domains shown)
VH: B1 VH
VL: B1 VL

Tests used:
[1] = molecular target: T1, L1CAM on the human ovarian cancer cell line SKOV3 (human, UniProt P32004 20-1257); test: flow cytometry on SKOV3 cells, anti-human IgG Fc-FITC
T1 construct: whole, on cells; The cells express L1CAM but not preS1; also called SKOV3 cells

[2] = molecular target: T2, GST-preS1(1-56)-strep of HBV genotype C (hepatitis B virus genotype C, UniProt P08515 1-218 = GST); test: indirect ELISA, genotype C GST-preS1(1-56)-strep coated (100 ng), antibody from culture supernatant, anti-human IgG Fc-HRP
T2 construct: Expressed in E. coli; also called wild type preS1 antigen; recombinant preS1 of genotype C; not shown: strep tag

[3] = molecular target: T3, GST-preS1(1-56)-strep of HBV genotype A (hepatitis B virus genotype A, UniProt P08515 1-218 = GST); test: BLI (Octet RED384), antibody captured on anti-human Fc tips, antigen 25-1.5625 nM in solution, 1:1 model
T3 construct: Expressed in E. coli; also called recombinant preS1 of HBV genotype A; preS1 antigen of genotype A; not shown: strep tag

[4] = molecular target: T4, GST-preS1(1-56)-strep of HBV genotype D (hepatitis B virus genotype D, UniProt P08515 1-218 = GST); test: indirect ELISA, GST-preS1(1-56)-strep coated, serially diluted AbS0, anti-human IgG Fc-HRP
T4 construct: Expressed in E. coli; also called recombinant preS1 of genotype D; not shown: strep tag

[5] = molecular target: T5, GST-preS1(1-56)-strep of HBV genotype B (hepatitis B virus genotype B, UniProt P08515 1-218 = GST); test: as above
T5 construct: Expressed in E. coli; also called recombinant preS1 of genotype B; not shown: strep tag

[6] = molecular target: T3, GST-preS1(1-56)-strep of HBV genotype A; test: as above
[7] = molecular target: T2, GST-preS1(1-56)-strep of HBV genotype C; test: as above
[8] = molecular target: T3, GST-preS1(1-56)-strep of HBV genotype A; test: indirect ELISA, genotype A GST-preS1(1-56)-strep (NPLGFFP) coated, serially diluted antibody
BSA = molecular target: T6, BSA (Bos taurus, UniProt P02769); test: indirect ELISA of monoclonal Fab phage on coated antigen, anti-M13-HRP
T6 construct: control antigen of the phage ELISA; also called bovine serum albumin
T6 sequence (P02769 25-607 limits assumed): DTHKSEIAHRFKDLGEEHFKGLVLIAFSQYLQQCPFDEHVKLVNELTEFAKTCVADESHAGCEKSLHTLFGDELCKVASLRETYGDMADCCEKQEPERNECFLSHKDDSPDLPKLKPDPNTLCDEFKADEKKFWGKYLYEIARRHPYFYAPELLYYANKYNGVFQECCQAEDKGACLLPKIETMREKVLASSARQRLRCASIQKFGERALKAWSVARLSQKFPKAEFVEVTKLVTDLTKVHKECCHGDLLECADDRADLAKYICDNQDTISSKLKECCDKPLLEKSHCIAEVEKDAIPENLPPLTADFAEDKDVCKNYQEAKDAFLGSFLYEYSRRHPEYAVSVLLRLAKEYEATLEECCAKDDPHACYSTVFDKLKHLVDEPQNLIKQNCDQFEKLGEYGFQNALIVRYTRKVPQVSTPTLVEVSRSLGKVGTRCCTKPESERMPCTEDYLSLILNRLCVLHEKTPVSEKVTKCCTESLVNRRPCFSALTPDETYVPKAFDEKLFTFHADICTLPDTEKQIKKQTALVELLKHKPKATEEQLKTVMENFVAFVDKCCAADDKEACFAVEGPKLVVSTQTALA

T3 sequence (P08515 whole entry): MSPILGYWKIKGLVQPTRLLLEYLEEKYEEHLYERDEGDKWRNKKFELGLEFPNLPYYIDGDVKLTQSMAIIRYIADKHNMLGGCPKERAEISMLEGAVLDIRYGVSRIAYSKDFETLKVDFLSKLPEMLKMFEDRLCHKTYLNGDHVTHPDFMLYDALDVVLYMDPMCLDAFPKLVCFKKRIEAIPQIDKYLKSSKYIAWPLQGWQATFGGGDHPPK
T2 sequence (P08515 whole entry): as above
T1 sequence (P32004 20-1257): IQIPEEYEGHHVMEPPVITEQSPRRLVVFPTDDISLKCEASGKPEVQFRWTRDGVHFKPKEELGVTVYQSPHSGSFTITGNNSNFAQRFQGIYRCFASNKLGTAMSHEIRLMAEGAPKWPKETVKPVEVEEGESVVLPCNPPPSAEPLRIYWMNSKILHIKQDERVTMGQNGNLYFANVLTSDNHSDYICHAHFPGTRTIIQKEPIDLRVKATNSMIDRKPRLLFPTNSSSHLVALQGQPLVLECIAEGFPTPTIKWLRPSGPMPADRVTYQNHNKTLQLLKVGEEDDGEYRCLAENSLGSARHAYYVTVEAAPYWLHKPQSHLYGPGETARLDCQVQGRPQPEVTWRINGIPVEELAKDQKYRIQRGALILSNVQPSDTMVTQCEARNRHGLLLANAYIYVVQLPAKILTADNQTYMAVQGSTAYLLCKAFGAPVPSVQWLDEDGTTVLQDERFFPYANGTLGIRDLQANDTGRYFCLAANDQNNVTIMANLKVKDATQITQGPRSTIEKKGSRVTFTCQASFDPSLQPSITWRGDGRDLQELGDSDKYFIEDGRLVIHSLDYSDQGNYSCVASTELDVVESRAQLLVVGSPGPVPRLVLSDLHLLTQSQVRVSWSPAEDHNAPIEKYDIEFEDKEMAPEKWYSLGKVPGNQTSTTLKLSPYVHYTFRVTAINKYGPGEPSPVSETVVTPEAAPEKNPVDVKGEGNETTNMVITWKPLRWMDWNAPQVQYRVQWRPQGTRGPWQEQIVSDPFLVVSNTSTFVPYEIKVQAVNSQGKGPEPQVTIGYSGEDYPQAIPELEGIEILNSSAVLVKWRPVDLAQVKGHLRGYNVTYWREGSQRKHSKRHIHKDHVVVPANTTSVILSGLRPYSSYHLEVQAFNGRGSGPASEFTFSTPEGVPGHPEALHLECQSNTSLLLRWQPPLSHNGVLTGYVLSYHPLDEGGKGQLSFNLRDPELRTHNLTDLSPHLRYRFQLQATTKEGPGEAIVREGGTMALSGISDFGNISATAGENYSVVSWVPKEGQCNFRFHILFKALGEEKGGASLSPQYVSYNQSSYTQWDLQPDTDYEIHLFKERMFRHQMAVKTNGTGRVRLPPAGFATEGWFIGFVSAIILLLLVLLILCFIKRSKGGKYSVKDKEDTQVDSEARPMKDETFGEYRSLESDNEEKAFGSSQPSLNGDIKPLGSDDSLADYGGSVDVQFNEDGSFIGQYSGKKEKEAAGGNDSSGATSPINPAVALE
T4 sequence (P08515 whole entry): as the sequence (P08515 whole entry) above
T5 sequence (P08515 whole entry): as above

Binder | binding result [1] | EC50 (read off the curve) [2] [µg/mL] | Kd [3] [nM] | koff [3] [s⁻¹] | kon [3] [M⁻¹ s⁻¹] | EC50 (read off the curve) [4] [µg/mL] | EC50 (read off the curve) [5] [µg/mL] | EC50 (read off the curve) [6] [µg/mL] | EC50 (read off the curve) [7] [µg/mL] | EC50 (read off the curve) [8] [µg/mL] | binding result (BSA)
B1 | no binding | ~0.003 | 0.5 | 0.000194 | 392000 | ~0.04 | ~0.04 | ~0.04 | ~0.04 | ~0.06 | –
B2 | – | – | – | – | – | – | – | – | – | – | no binding
